Changes are numbered by the printed parent chain. Like-named read-outs stand apart in the source and are kept apart here.
B1: FB139 (antibody, V domains shown)
VH: QVQLVQSGAEVKKAGSSVKVSCQSSGVTFSMYAVSWVRQAPGQGLEWMGGIIPLFGTTTYAQKFEGRLTITADTSTNMAYLELRSLRSEDTAVYFCARAGTTVTRFNWFDPWGQGTLVTVSS
VL: EVVLTQSPGTLSLSPGQRATLSCRASQSVSSSYLAWYQQKPGQAPRLLIYDASNRATGIPDRFSGSGSGTDFTLTISRLEPEDFAVYYCQQYGSSPYTFGQGTKLEIK
B2: FE43 (antibody, V domains shown)
VH: QVHLVQSGAEVKKPGSSVRLSCSASGGPFSGFAISWLRQAPGQGLEWLGGISAVFGTATYAQKFQGRVTITADQFTSTSHMDLSRLTYDDTAVYYCARSGGYLPQNNWIDPWGQGTLVIVSS
VL: DIVMTQTPLSLSVTPGQPASISCKSSQSLLHSDGKTYLYWYLQKPGQSPQLLIYEVSNRFSGVPDRFSGSGSGTDFTLKISRVEAEDVGVYYCMQNILLPLTFGGGTKVEIK
B3: FC6 (antibody, V domains shown)
VH: QGQLVQSGAEVKKSGSSVKVSCKTSGGTFNSHAISWVRQAPGQGLEWIGGIIPMFGTTNYAQKLKGRIAITADQLPTTAYLELSSLRSEDTAVYYCARGQRYYYDRDGMDVWGQGTMVTVSS
VL: B2 VL with D1E, K24R, S48P, Y54S, S57F, N96S, I97L, L98Q
B4: FE53 (antibody, V domains shown)
VH: QVQLVQSGAEVKKPGSSVKVSCKASGVTSSNYPITWVRQAPGQGLEWMGGVLPLFGVTNYAQKFQGRVTISADKSTNTAYMELSSLRSEDTAVYYCARGKRPGYCSGGVCSSDYWGQGTLVTVSS
VL: DIQMTQSPSSLSASVGDRVSITCQASQDISRYLNWYQQKPGEAPKLLIYDASNLETGVPSRFSGSGSGTDFTFTISSLQPEDIATYFCQQYGYLPLTFGPGTKVDSK

Columns and labels:
[1] = target: recombinant trimeric H5 HA (A/VN/1203/04) (influenza A virus A/VN/1203/04 (H5N1)); assay: ELISA
[2] = target: H1 HA A/SI/3/06 (ELISA antigen) (influenza A virus A/SI/3/06 (H1)); assay: ELISA
[3] = target: H9 HA A/HK/1073/99 (ELISA antigen) (influenza A virus A/HK/1073/99 (H9)); assay: ELISA
[4] = target: H5 HA A/INDO/5/05 (ELISA antigen) (influenza A virus A/INDO/5/05 (H5N1)); assay: ELISA
[5] = target: H1 HA A/Texas/3/99 (ELISA antigen) (influenza A virus A/Texas/3/99 (H1)); assay: ELISA
[6] = target: recombinant trimeric H5 HA (A/VN/1203/04) (influenza A virus A/VN/1203/04 (H5N1)); assay: competition ELISA on recombinant trimeric H5 HA; competitor FLD21
[7] = target: H1 HA A/SI/3/06 (on infectious virus) (influenza A virus A/SI/3/06 (H1N1)); assay: cell-based or functional assay
[8] = target: H2 HA A/JP/305/57 (on infectious virus) (influenza A virus A/JP/305/57 (H2N2)) (UniProt P03451); assay: cell-based or functional assay
[9] = target: H5 HA A/Anhui/1/5 (on pseudotypes) (influenza A virus A/Anhui/1/5 (H5N1)); assay: cell-based or functional assay
[10] = target: H9 HA A/HK/1073/99 (on infectious virus) (influenza A virus A/HK/1073/99 (H9N2)); assay: cell-based or functional assay
[11] = target: H5 HA A/HK/491/97 (on pseudotypes) (influenza A virus A/HK/491/97 (H5N1)); assay: cell-based or functional assay
[12] = target: H5 HA A/WS/Mong/244/05 (on pseudotypes) (influenza A virus A/WS/Mong/244/05 (H5N1)); assay: cell-based or functional assay
[13] = target: H5 HA A/VN/1194/04 (on pseudotypes) (influenza A virus A/VN/1194/04 (H5N1)); assay: cell-based or functional assay
[14] = target: H9 HA A/ck/HK/G9/97 (on infectious virus) (influenza A virus A/ck/HK/G9/97 (H9N2)); assay: cell-based or functional assay
[15] = target: H5 HA A/VN/1203/04 (on pseudotypes and on infectious virus) (influenza A virus A/VN/1203/04 (H5N1)); assay: cell-based or functional assay
[16] = target: H1 HA A/NC/20/99 (on infectious virus) (influenza A virus A/NC/20/99 (H1N1)); assay: cell-based or functional assay
[17] = target: H5 HA A/INDO/5/05 (on pseudotypes and on infectious virus) (influenza A virus A/INDO/5/05 (H5N1)); assay: cell-based or functional assay
[18] = target: H1 HA A/PR/8/34 (on infectious virus) (influenza A virus A/PR/8/34 (H1N1)) (UniProt P03452); assay: cell-based or functional assay
[19] = target: H5 HA A/HK/213/03 (on pseudotypes) (influenza A virus A/HK/213/03 (H5N1)); assay: cell-based or functional assay
[20] = target: recombinant trimeric H5 HA (A/VN/1203/04) (influenza A virus A/VN/1203/04 (H5N1)); assay: competition ELISA on recombinant trimeric H5 HA; competitor C179
[21] = target: H6 HA A/teal/HK/WN312/97 (on infectious virus) (influenza A virus A/teal/HK/W312/97 (H6N1)); assay: cell-based or functional assay
[22] = target: H3 HA A/WY/3/03 (on infectious virus) (influenza A virus A/WY/3/03 (H3N2)); assay: cell-based or functional assay
[23] = target: H1 HA A/swine/Iowa/31 (on infectious virus) (influenza A virus A/swine/Iowa/31 (H1N1)); assay: cell-based or functional assay
[24] = target: H1 HA A/NJ/76 (on infectious virus) (influenza A virus A/NJ/76 (H1N1)); assay: cell-based or functional assay
[25] = target: H1 HA A/CA/07/09 (on infectious virus) (influenza A virus A/CA/07/09 (H1N1)); assay: cell-based or functional assay
[26] = target: H1 HA A/swine/Iowa/31 (on infectious virus) (influenza A virus A/swine/Iowa/31 (H1N1)); assay: cell-based or functional assay; remark: listed apart in the source
[27] = target: H5 HA A/VN/1203/04 (on pseudotypes and on infectious virus) (influenza A virus A/VN/1203/04 (H5N1)); assay: cell-based or functional assay; remark: listed apart in the source
[28] = target: H1 HA A/NJ/76 (on infectious virus) (influenza A virus A/NJ/76 (H1N1)); assay: cell-based or functional assay; remark: listed apart in the source
[29] = target: H1 HA A/CA/07/09 (on infectious virus) (influenza A virus A/CA/07/09 (H1N1)); assay: cell-based or functional assay; remark: listed apart in the source
[30] = target: H1 HA A/PR/8/34 (on infectious virus) (influenza A virus A/PR/8/34 (H1N1)) (UniProt P03452); assay: cell-based or functional assay; remark: listed apart in the source

Row | Binder | K50 [1] | K50 [2] | K50 [3] | K50 [4] | K50 [5] | Competition (%) [6] | Neutralization of infectious viruses (IC50) [7] | Neutralization of HA-pseudotypes (IC90) [9] | Neutralization of infectious viruses (IC50) [10] | Neutralization of HA-pseudotypes (IC90) [11] | Neutralization of HA-pseudotypes (IC90) [12] | Neutralization of HA-pseudotypes (IC90) [13] | Neutralization of infectious viruses (IC50) [14] | Neutralization of HA-pseudotypes (IC90) [15] | Neutralization of infectious viruses (IC50) [16] | Neutralization of HA-pseudotypes (IC90) [17] | Neutralization of infectious viruses (IC50) [17] | Neutralization of infectious viruses (IC50) [18] | Neutralization of HA-pseudotypes (IC90) [19] | Competition (%) [20] | other results
1 | B1 | 0.033 µg/mL | 1.38 µg/mL | 0.066 µg/mL | 0.163 µg/mL | 0.06 µg/mL | < 20% | 4 µg/mL | 0.022 µg/mL | 20 µg/mL | 0.019 µg/mL | 0.035 µg/mL | 0.04 µg/mL | 6 µg/mL | 0.034 µg/mL | 36 µg/mL | 0.106 µg/mL | 36 µg/mL | 5 µg/mL | 0.019 µg/mL | 100% | Neutralization of infectious viruses (IC50) [8]: 50 µg/mL; Neutralization of infectious viruses (IC50) [15]: 36 µg/mL
2 | B2 | 0.029 µg/mL | 0.206 µg/mL | 0.307 µg/mL | 4.54 µg/mL | 0.013 µg/mL | < 20% | 9 µg/mL | 0.137 µg/mL | 50 µg/mL | 0.053 µg/mL | 0.186 µg/mL | 0.061 µg/mL | 4 µg/mL | 0.146 µg/mL | 40 µg/mL | 0.39 µg/mL | 25 µg/mL | 4 µg/mL | 0.07 µg/mL | 100% | Neutralization of infectious viruses (IC50) [21]: 20 µg/mL; Neutralization H1N1 IC90 [7]: 6.2 µg/mL; Neutralization H3N2 IC50 [22]: > 50 µg/mL; Hemagglutination inhibition titer [23]: 20; Neutralization H5pp IC90 [13]: 0.03 µg/mL; Neutralization H9N2 IC50 [14]: 0.02 µg/mL; Hemagglutination inhibition titer [15]: < 5; Neutralization H5N1 IC50 [15]: > 50 µg/mL; Neutralization H1N1 IC90 [16]: 6.2 µg/mL; Hemagglutination inhibition titer [24]: < 5; Hemagglutination inhibition titer [25]: < 5; Hemagglutination inhibition titer [18]: < 5; Neutralization of infectious viruses (IC50) [26]: 3 µg/mL; Neutralization of infectious viruses (IC50) [27]: > 50 µg/mL; Neutralization of infectious viruses (IC50) [28]: 9 µg/mL; Neutralization of infectious viruses (IC50) [29]: 4 µg/mL; Neutralization of infectious viruses (IC50) [30]: 1.5 µg/mL
3 | B3 | 0.157 µg/mL | 1.47 µg/mL | 0.15 µg/mL |  | 0.066 µg/mL | < 20% | 18 µg/mL | 0.112 µg/mL | 36 µg/mL | 0.081 µg/mL | 0.073 µg/mL | 0.061 µg/mL | 9 µg/mL | 0.096 µg/mL | 40 µg/mL | 0.242 µg/mL | 31 µg/mL | 16 µg/mL | 0.077 µg/mL | 100% | Neutralization of infectious viruses (IC50) [21]: 63 µg/mL; Neutralization H1N1 IC90 [7]: 12.5 µg/mL; Neutralization H5pp IC90 [13]: 0.04 µg/mL; Neutralization H1N1 IC90 [16]: 12.5 µg/mL
4 | B4 | 0.015 µg/mL | 0.375 µg/mL | 0.014 µg/mL | 0.084 µg/mL | 0.015 µg/mL | < 20% | 6 µg/mL | 0.065 µg/mL | 8 µg/mL | 0.046 µg/mL | 0.077 µg/mL | 0.008 µg/mL | 2 µg/mL | 0.098 µg/mL | 37 µg/mL | 0.491 µg/mL |  |  | 0.066 µg/mL | 100% | Neutralization H1N1 IC90 [7]: 6.2 µg/mL; Neutralization H3N2 IC50 [22]: > 50 µg/mL; Neutralization H5pp IC90 [13]: 0.008 µg/mL; Neutralization H9N2 IC50 [14]: 0.1 µg/mL; Neutralization H5N1 IC50 [15]: > 50 µg/mL; Neutralization H1N1 IC90 [16]: 6.2 µg/mL
